From patent publication US11733246B2, “Compositions, imaging, and therapeutic methods targeting folate receptor 1 (FOLR1)” (Indi Molecular, Inc., priority 2020, dated 2023)
Where two headings read alike, the source gives them in different places. Numbered stars: 1 amine (or outer) side, 2 acyl side, 3 side chain; on linkers, the order of the positions; unused ones are H or OH. Bridge positions count the residues as written; N and C are the ends. Square brackets hold non-standard residues; d marks the D form. Triazole bridges read from a SMILES are 1,4-linked. Peptide text beside a SMILES is read from it. * marks the point of attachment. DOTA = O=C(O)CN1CCN(CC(=O)O)CCN(CC(=O)*)CCN(CC(=O)O)CC1; Pteroyl = Nc1nc2ncc(CNc3ccc(C(=O)*)cc3)nc2c(=O)[nH]1; Butanoyl(4-(4-MePh)) = Cc1ccc(CCCC(=O)*)cc1; Lys(N3) = [N-]=[N+]=NCCCC[C@H](N)C(=O)O; γGlu = O=C(O)[C@H](CCC(=O)[*:2])N[*:1]; AEEEA = NCCOCCOCCOCC(=O)O; Pra = C#CC[C@H](N)C(=O)O

Key:
[1] = Plasma protein binding (equilibrium dialysis), human; type: in vitro ADME
How it was run: (§1)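 Equilibrium dialysis across 12-14 kDa cellulose membranes; test articles at 2 μM in mouse or human plasma adjusted to pH 7.0-8.0, in triplicate. Dialysed 4 hours at 37° C. with slow shaking; both sides quantified by LC-MS/MS to give fraction bound.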

[2] = Plasma protein binding (equilibrium dialysis), mouse; type: in vitro ADME, CD-1 mouse
How it was run: as §1

human recombinant NEP = human recombinant NEP (Homo sapiens, UniProt P08473); type: biochemical
How it was run: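 Peptide bearing GFK linker (10 μM) incubated with recombinant human NEP (10, 1, 0.1, 0.01 nM or none) at 37° C. for 1 h. Cleavage tracked by MALDI-MS, cleaved adduct identified by mass, and by HPLC as parent-peak depletion with new-peak appearance; non-cleavable PEG3 linker assayed for specificity.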

[3] = human, plasma, Plasma Stability (t 1/2)
Description: (§2) Plasma was thawed in a 37° C. water bath. Residual clots were removed via centrifugation at 4000 rpm for 5 minutes. The pH of the plasma was adjusted to 7.4 if required. Test articles were diluted to 100 μM by diluting a 1 mM working solution (in DMSO) with 45% methanol in water. To 98 μL of plasma was added 2 μL of the 100 μM solution, resulting in 2 μM final concentration of the test article. Samples were incubated at 37° C. in a water bath. At the indicated time points (0, 10, 30, 60, 120 minutes) 100 μL of 4% H3PO4 was added followed by 800 μL of stop solution (200 ng/mL tolbutamide and 200 ng/mL labetalol in 100% acetonitrile). The samples were centrifuged and the plasma protein-free supernatant (100 μL) was subjected to LC-MS/MS analysis.

[4] = mouse, plasma, Plasma Stability (t 1/2)
Description: as §2

human recombinant NEP, sequence (P08473 whole entry): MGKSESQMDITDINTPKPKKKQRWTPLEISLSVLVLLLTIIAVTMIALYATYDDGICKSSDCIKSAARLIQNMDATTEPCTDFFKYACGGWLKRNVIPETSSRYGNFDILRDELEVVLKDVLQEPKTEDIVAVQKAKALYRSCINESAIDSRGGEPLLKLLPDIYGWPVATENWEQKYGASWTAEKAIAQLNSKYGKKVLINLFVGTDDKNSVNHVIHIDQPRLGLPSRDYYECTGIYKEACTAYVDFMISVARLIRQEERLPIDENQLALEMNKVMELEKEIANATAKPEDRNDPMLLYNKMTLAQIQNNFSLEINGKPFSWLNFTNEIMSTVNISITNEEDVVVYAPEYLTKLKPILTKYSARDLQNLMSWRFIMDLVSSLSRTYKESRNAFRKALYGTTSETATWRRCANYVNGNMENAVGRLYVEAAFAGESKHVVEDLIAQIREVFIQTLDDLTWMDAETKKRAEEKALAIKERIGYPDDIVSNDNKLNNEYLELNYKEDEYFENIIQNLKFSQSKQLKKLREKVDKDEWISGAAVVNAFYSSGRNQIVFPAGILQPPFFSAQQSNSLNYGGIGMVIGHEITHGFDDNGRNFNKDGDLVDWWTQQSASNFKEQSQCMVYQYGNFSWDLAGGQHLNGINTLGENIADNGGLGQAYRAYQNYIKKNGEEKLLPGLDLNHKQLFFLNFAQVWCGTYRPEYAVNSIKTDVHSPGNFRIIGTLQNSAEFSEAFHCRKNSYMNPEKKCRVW

Work on `Cc1ccc(CCCC(=O)NCCCC[C@H](NC(=O)COCCOCCOCCNC(=O)[C@@H]2CCCCn3cc(nn3)C[C@H](NC(=O)CC[C@H](NC(=O)c3ccc(NCc4cnc5nc(N)[nH]c(=O)c5n4)cc3)C(=O)O)C(=O)N[C@H](Cc3c[nH]cn3)C(=O)N[C@H](CO)C(=O)N[C@H](Cc3c[nH]cn3)C(=O)N[C@H]([C@H](C)O)C(=O)N[C@H](C)C(=O)N2)C(=O)N[C@@H](CCCCNC(=O)CN2CCN(CC(=O)O)CCN(CC(=O)O)CCN(CC(=O)O)CC2)C(N)=O)cc1` [compound #2809, Fol-hshta-PEG3-Lys(4-MPBA)-Lys(DOTA)] ({Pteroyl-γGlu}-[Pra][dH][dS][dH][dT][dA][Lys(N3)][AEEEA]K(Butanoyl(4-(4-MePh)))K(DOTA)-NH2; triazole 1-7) yielded a recovery [1] of 85.8%, a fraction unbound ([1]; human, plasma) of 0.167 and a recovery [2] of 108%. For the same compound, the fraction unbound ([2]; mouse, plasma) was 0.0791, the “NEP-mediated cleavage (site / susceptibility)” value (human recombinant NEP) was “unchanged” and the “in vitro Assay Data (NEP assay)” value (human recombinant NEP) was “resistant to NEP”. For the same compound, the half-life [3] was greater than 4.82 h and the half-life [4] was greater than 4.82 h.
